pKd: −log10 of the molar value.
What was measured:
[1] = target: taxol-stabilized microtubules (pelleting assays) (UniProt P02550); assay: co-sedimentation; microtubule pelleting with increasing taxol-stabilized microtubules; ~5 nM Astrin-SKAP complex, BRB80 with 25 mM KCl, 0.5 mg/mL BSA, room temperature 10 min, glycerol cushion; α-SKAP Western blot; apparent
[2] = target: taxol-stabilized microtubules (pelleting assays) (UniProt P02550); assay: co-sedimentation; as a5 with increasing microtubules, in the presence of an added Ndc80 complex (1 µM Ndc80 Bonsai; Ndc80 Broccoli); apparent

Row | Substance | pKd [1] | apparent KD in the presence of 1 µM Ndc80 Bonsai complex [2]
1 | Astrin 465–693 complex (Astrin 465–693, SKAP, LC8, MYCBP) (from UniProt Q96R06 465-693; P63167 1-89; Q99417 1-103) | 5.66 | 1.7 µM
2 | Astrin 1–693 complex (Astrin 1–693, SKAP, LC8, MYCBP) (from UniProt Q96R06 1-693; P63167 1-89; Q99417 1-103) | 5.49 | 1.4 µM

— publication PMC5602300
